A short description of data set [1]: recombinant protein expression level. Particulars: glycan lost; control: LRG1 WT.
The target of data set [2] is LPHN2 Lec/Olf domain (human). Briefly: ELISA; solid-phase binding assay: LPHN2 extracellular domain variants (100 nM) coated on MaxiSorp 96-well plates, 1 h room temperature, blocked with 1% BSA; 0.001-10 μM LRG1 forms added; detected with anti-LRG1 antibody and peroxidase-conjugated secondary antibody. A general note: An ELISA detects its analyte on a solid surface through an enzyme-linked reagent.

For data set [3], the target named is T1, LPHN2 olfactomedin-like (Olf) domain (human, UniProt O95490 135-394).
T1 chain: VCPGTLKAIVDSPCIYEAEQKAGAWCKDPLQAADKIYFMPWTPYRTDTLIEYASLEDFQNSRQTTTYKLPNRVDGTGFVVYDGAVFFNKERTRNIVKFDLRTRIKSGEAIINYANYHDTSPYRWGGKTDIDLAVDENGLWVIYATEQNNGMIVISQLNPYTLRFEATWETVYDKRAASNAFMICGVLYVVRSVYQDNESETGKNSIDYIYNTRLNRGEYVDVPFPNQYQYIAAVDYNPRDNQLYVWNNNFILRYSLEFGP
The data set can be described thus: ELISA.

The target in data set [4] is T2, LPHN2 Lec (Homo sapiens).
T2 chain: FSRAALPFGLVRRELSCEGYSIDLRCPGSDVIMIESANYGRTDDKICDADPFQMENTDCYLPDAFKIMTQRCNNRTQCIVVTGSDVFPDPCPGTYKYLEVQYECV
Briefly: ELISA.

Data set [5] concerns the target LPHN2 ecto-full domain (human). The data set can be described thus: ELISA; solid-phase binding assay: LPHN2 extracellular domain variants (100 nM) coated on MaxiSorp 96-well plates, 1 h room temperature, blocked with 1% BSA; 0.001-10 μM LRG1 forms added; detected with anti-LRG1 antibody and peroxidase-conjugated secondary antibody.

B1: leucine-rich α-2-glycoprotein 1 (LRG1): N79D (protein)
parent chain: MSSWSRQRPKSPGGIQPHVSRTLFLLLLLAASAWGVTLSPKDCQVFRSDHGSSISCQPPAEIPGYLPADTVHLAVEFFNLTHLPANLLQGASKLQELHLSSNGLESLSPEFLRPVPQLRVLDLTRNALTGLPPGLFQASATLDTLVLKENQLEVLEVSWLHGLKALGHLDLSGNRLRKLPPGLLANFTLLRTLDLGENQLETLPPDLLRGPLQLERLHLEGNKLQVLGKDLLLPQPDLRYLFLNGNKLARVAAGAFQGLRQLDMLDLSNNSLASVPEGLWASLGQPNWDMRDGFDISGNPWICDQNLSDLYRWLQAQKDKMFSQNDTRCAGPEAVKGQTLLAVAKSQ
Consider B1, for which the expression_or_secretion entry in data set [1] is “no change”.

B2: leucine-rich α-2-glycoprotein 1 (LRG1): N325D (protein)
parent chain: B1 parent chain
Turning to B2, the expression_or_secretion result in data set [1] was “no change”.

B3: leucine-rich α-2-glycoprotein 1 (LRG1): N186D (protein)
parent chain: B1 parent chain
For B3, the expression_or_secretion entry in data set [1] is reported as “no change”.

B4: leucine-rich α-2-glycoprotein 1 (LRG1): N269D (protein)
parent chain: B1 parent chain
Take B4: the expression_or_secretion entry in data set [1] is “no change”.

B5: Leucine-rich α-2-glycoprotein 1 (LRG1), recombinant human, glycosylated (natural protein)
chain: VTLSPKDCQVFRSDHGSSISCQPPAEIPGYLPADTVHLAVEFFNLTHLPANLLQGASKLQELHLSSNGLESLSPEFLRPVPQLRVLDLTRNALTGLPPGLFQASATLDTLVLKENQLEVLEVSWLHGLKALGHLDLSGNRLRKLPPGLLANFTLLRTLDLGENQLETLPPDLLRGPLQLERLHLEGNKLQVLGKDLLLPQPDLRYLFLNGNKLARVAAGAFQGLRQLDMLDLSNNSLASVPEGLWASLGQPNWDMRDGFDISGNPWICDQNLSDLYRWLQAQKDKMFSQNDTRCAGPEAVKGQTLLAVAKSQ
modifications: N-linked glycans (N-acetylglucosamine seen in the crystal) at N79, N186, N269 and N325; Alexa 647-conjugated in the FACS assay
In the case of B5, in data set [2], the Kd – broadly, the free concentration of one partner at which half of the binding sites on the other are occupied at equilibrium, for simple one-to-one binding – came out at 920 nM. This lies in the sub-micromolar range.

B6: Deglycosylated LRG1 (LRG1 treated with PNGase F) (natural protein)
chain: B5 chain
modifications: N-glycans removed by PNGase F; Alexa 647-conjugated in the FACS assay
As to B6, the Kd in data set [3] was 450 nM; in data set [4], 1100 nM; in data set [2], 450 nM; in data set [5] it was 840 nM.
